Measurements taken from the supplement of paper PMC9170038.

System: MS2 coat protein
Assay: apparent KD of MS2 coat protein; designed switch direction (-1 OFF switch, 1 ON switch): 1; higher = weaker reporter binding
Method in brief: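 Designed RNA switches with common flanks were made on Illumina chips by stalled E. coli RNA polymerase. Titration with SNAP-549-labelled MS2 coat protein doubled from 0.7 or 1.5 nM up to 3 µM. Apparent KD is each design's median over clusters after curve-fitting normalised fluorescence.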

[1] = input ligand: microRNA oligo, concentration not stated
[2] = Eterna round: R95, input ligand: FMN 200 uM
[3] = Eterna round: R95, input ligand: microRNA oligo, concentration not stated
[4] = Eterna round: R95, input ligand: none

Sequence | apparent KD of MS2 coat protein [1] [nM] | apparent KD of MS2 coat protein (input ligand: FMN 200 uM) [nM] | apparent KD of MS2 coat protein (input ligand: none) [nM] | apparent KD of MS2 coat protein [2] [nM] | apparent KD of MS2 coat protein [3] [nM] | apparent KD of MS2 coat protein [4] [nM]
AUUAAUUAAUUAAUACAUGAGGAUCACCCAUGUAAUAAGAUCAAGGAUAUCAGCUCGAUUAGAGCUGAGAAGGUGAUCACAUGU [SSNG3/17-B2] (Eterna round: R96, puzzle: Same State NG 3) | 509 |  |  |  |  | 
ACAUGAAAUAGAGGAUAUUUUGUACCUACAUGUGACAUGAGGAUCACCCAUGUGGUAAGUAUGAGAAAGAAGGCUAAGAUAUGU [Equivalence 12 - Jieux - Same State NG 2] (Eterna round: R96, puzzle: Same State NG 2) | 30.3 | 18.6 | 48.6 |  |  | 
UGCAUACAUGAGGAUCACCCAUGUCAACGUAGCCGAGGAUAUGGAUUGCCGUGAGGCGUGCCAGAAGGCGGAGAGG [Same State 1 - Mod of Vinnie Teenbexe] (puzzle: Same State 1) |  |  |  | 29.1 | 42.5 | 59
GAGAGACAUGAGGAUCACCCAUGUAGAAUAGAACAAGGAUAUGUGGAAGGCGGAGGAGAGACAGAAGGUGUAGGAG [JR_SS1_Sub055] (puzzle: Same State 1) |  |  |  |  | 64 | 
CUGAGCGAUCAAGGAUAUCACGUCGAAUAGACGUGAGAAGGUGAUCAUAACAUGAGGAUCACCCAUGUAUUACAUGAAGCUCAG [SSNG1/2-A1] (Eterna round: R96, puzzle: Same State NG 1) | 536 | 231 | 2240 |  |  | 
GAGUGGUGGAGAGGAUAUACAUUGUUAUUCACUGUAGAAGGUUCUAACAUGAGGAUCACCCAUGUAGGACUAUUCCUGAGAGUU [Parity 55 - Jieux - Same State NG 1] (Eterna round: R96, puzzle: Same State NG 1) | 10.9 | 13.1 | 14.2 |  |  | 
GUAGCAUACCGAGGAUAUUCAUAUACAUGAGGAUCACCCAUGUUGGCCAGCAUUAGCUGGCCUUGGGAGAAGGCGGAAUGCUAC [Xeonanis - 20 Mod50] (Eterna round: R96, puzzle: Same State NG 2) | 79.4 | 18.9 | 141 |  |  | 
GGUGCCAAAUAAGCCUACAUGAGGAUCACCCAUGUAUGUAGGUAGGAUAUCGUUUGCAAAGCAAACGAGAAGGGCCUAGGCACC [Mat - Same State NG 3 - JL Mod - D59] (Eterna round: R96, puzzle: Same State NG 3) | 39.3 | 26.1 | 50.7 |  |  | 
CGGGUGGUUCUAGGAUAUCUAGGAUAUGGACGAGGAUUACCCGAGCAGCAUUAGCGCACCAGAGGAGAGAAGGAGAGUGAUGCG [pwkr ssNG2 2F5 2FMN.16] (Eterna round: R96, puzzle: Same State NG 2) | 3.25 | 251 | 53.3 |  |  | 
ACAUGAGAUAGAGGAUAUAUUGUACCUACAUGUGACAUGAGGAUCACCCAUGUGGUAAGUAUGACAUAGAAGGCUGAGAUAUGU [Equivalance 83 - Jieux - Same State NG 2] (Eterna round: R96, puzzle: Same State NG 2) | 67.5 | 69.8 | 77 |  |  | 
AGCUAUCGAAAACGAUAGCAAGAGCAUGUACAUGAGGAUCACCCAUGUCAUGUACAAGCUUUUUGCUCGUCUUAAAA [Zipper 23 - 2] (puzzle: Sensor for hsa-mir-208a) |  |  |  | 330 | 17 | 490
UUAAAGAAUUAAGGAUAUUGAAUACAUAUGUUUAACAUGAGGAUCACCCAUGUGGGUUGCGGUAUCGAGAAGGUAAAAUAAUAG [Mat - Same State NG 2 - JL mod - D5] (Eterna round: R96, puzzle: Same State NG 2) | 106 | 108 | 118 |  |  | 
GUAGCAUACCGAGGAUAUUCAUAUUAUACAUGAGGAUCACCCAUGUAAGGCCGAUUACGGCCUUGGGAGAAGGCGGAAUGCUAC [Xeonanis - 20 Mod21] (Eterna round: R96, puzzle: Same State NG 2) | 68.2 | 18.9 | 105 |  |  | 
GUGGUCAGACAUGAGGAUCACCCAUGUGGAAUAAAUAACACACAGGAUAUCUAAUAUAAAAUAUAAGAGAAGGGUGGAUUGGUG (Eterna round: R96, puzzle: Same State NG 3) | 202 |  |  |  |  | 
GUGGAGGGUUAAGGAUAUUGAAUACAUAUGUUUAACAUGAGGAUCACCCAUGUGGGUUGCGGUAUCGAGAAGGUAAAUUACUGG [salish99_SSNG2_r04_035] (Eterna round: R96, puzzle: Same State NG 2) | 151 | 192 | 133 |  |  | 
UUGAAGAAUUAAGGAUAUUGAGUACAUAUGUAAAACAUGAGGAUCACCCAUGUGGGUUGCGGUAUCGAGAAGGUAAAAUAAUAG [Mat - same State NG 2 - JL mod - D71] (Eterna round: R96, puzzle: Same State NG 2) | 79.6 | 74.5 | 81.6 |  |  | 
UAGUGCAUUAGAGGAUAUUCUUACGGAAACGUUAAGACAUGAGGAUCACCCAUGUUGUCACAUGGGAAGAAGGCUGAUGUGCUA [Omei SS(NG)2 Bv4] (Eterna round: R96, puzzle: Same State NG 2) | 390 | 63.6 | 835 |  |  | 
AUCAUUUAUGCAGGAUAUGAUUAACAUGAGGAUCACCCAUGUGGUGUUGUGAGUAAGGAGAGUGAUCAGAAGGGCAUUUUUUUU [JMF's solution 72] (Eterna round: R96, puzzle: Same State NG 2) | 296 | 476 | 482 |  |  | 
UAGUGAUUGCAAGGAUAUGCUUAUGUUUAAUUUUAUUUAUUAUCUAACAUGAGGAUCACCCAUGUGCAGAAGGUGCUUGAUUUG [JR_SSNG2_Sub074] (Eterna round: R96, puzzle: Same State NG 2) | 48.4 |  |  |  |  | 
AUGUUUAAUGCAGGAUAUGAUUAACAUGAGGAUCACCCAUGUGGUGUUGUGAGUAAGGAGAGUGAUCAGAAGGGCAUUUUUUUU [JMF's solution 101] (Eterna round: R96, puzzle: Same State NG 2) | 516 |  |  |  |  | 
UCGAGCGUACUUGCAGACAUGAGGAUCACCCAUGUAAAUGGGAAGGAUAUGGUACCGUUUCGGUACCAGAAGGUCCUAAGUGCU [salish99_SSNG3_r04_304] (Eterna round: R96, puzzle: Same State NG 3) | 862 | 166 | 1440 |  |  | 
GUUACAUGAGGAUCACCCAUGUAUGUGUGGGAGUAAGUGUCUUAGGAUAUCUAUUAUUGAAAUUAAGAGAAGGAAGAUUGUUGU [JMF's solution 19] (Eterna round: R96, puzzle: Same State NG 3) | 98.6 |  |  |  |  | 
GUGUAUAGCCUCGAGGAUAUCCUGUAAUGCACAUGAGGAUCACCCAUGUAUGAGCGAGUUUUUUGGGAGAAGGCGAGUUAUCGGU [JR_SS002_Sub1709] (Eterna round: R96, puzzle: Same State 2) | 18 |  |  |  |  | 
